Here are results for two molecules from patent US20230272024A1, “FIBROBLAST GROWTH FACTOR 7 PEPTIDE” (University of Florida Research Foundation, Incorporated, priority 2020, published 2023).

Entries after “also recorded” stand apart in the source; their conditions may differ.

Holding throughout (type): in vivo, mice
Assay [1] has as its system bladder urothelium. Put plainly: radiation-induced bladder urothelial apoptosis (TUNEL). As to conditions: two doses 20 mg/kg SQ at 72 and 48 hours prior to 10 Gray radiation, one day later. As for the experimental part: The ability of FGF7p to inhibit radiation injury as assesses. Two doses of FGF7p (20 mg/kg SQ) or 2.5% DMSO/PBS vehicle was administered to anesthetized female mice (N=2) at 72 hours and 48 hours prior to exposing the mice to 10 Gray (1000 rads) radiation. Instead of directly exposing bladders to irradiation, we transurethrally filled bladders with 300 μL of saline and focused the radiation beam over the bladder bulge on the depilated abdominal wall. One day later, we noted many TUNEL+ urothelial apoptotic cells in the vehicle-treated mice (FIG. 4, left panel). […] Thus, similar to KGF, systemic FGF7p inhibited or blocked radiation-induced apoptosis.

In assay [2] the test system is bladder urothelium. Put plainly: cyclophosphamide-induced urothelial injury and apoptosis (H&E, TUNEL). As for the experimental part: FVB/N mice were administered subcutaneous doses 5 mg/kg, 20 mg/kg, 40 mg/kg of FGF7-p, 5 mg/kg of full length FGF7, or 10% DMSO alone (vehicle). After 24 hours, 150 mg/kg of cyclophosphamide was administered to the mice. Mice were the sacrificed and bladder tissues examined for signs of urothelial injury at various times.
(§1) Mice were administered two doses of 20 mg/kg of subcutaneous (SQ) FGF7-p (or 10% DMSO vehicle) at 72 hours and 48 hours prior to intraperitoneal (IP) injection of 150 mg/kg cyclophosphamide (n=3 female mice per group). Mice were sacrificed and bladders were harvested 24 hours after cyclophosphamide injection. The bladders were fixed in 4% paraformaldehyde in phosphate buffered saline and embedded in paraffin. The paraffin embedded bladders were then serially sectioned with a microtome. Hematoxylin and eosin staining was performed on the sections.

In the next assay the test system is pBAD. Put plainly: phosphorylated BAD (pBAD) immunostaining of urothelium after cyclophosphamide. The settings on record: two SC doses of 20 mg/kg at 72 and 48 hours prior to cyclophosphamide, 24 hours after cyclophosphamide. The procedure:
as §1

Another assay deals with pAKT. Put plainly: pAKT immunostaining of urothelium after cyclophosphamide. The settings on record: two SC doses of 20 mg/kg at 72 and 48 hours prior to cyclophosphamide, 24 hours after cyclophosphamide.
Another assay concerns pS6. Put plainly: phosphorylated p70S6 kinase (pS6) immunostaining of urothelium after cyclophosphamide. The settings on record: two SC doses of 20 mg/kg at 72 and 48 hours prior to cyclophosphamide; 24 hours after cyclophosphamide; versus DMSO.
Assay [3] concerns the target T1, FGFR2IIIb (Mus musculus, UniProt P21803).
T1 construct: from tissue; host or cells: bladder urothelium of FVB/N mice (in vivo)
Put plainly: pAKT immunostaining of bladder urothelium after subcutaneous ligand. As to conditions: for pAKT staining: uninjured mice, full length FGF7 5 mg/kg, FGF7-p 40 mg/kg. The procedure: (§2) Uninjured mice were treated with 0.2 mL of 10% DMSO, 40 mg/kg FGF7-p, or […] full length FGF7 (n=2 mice per group, mice were about 25 g in weight) administered by subcutaneous injection. At the indicated times (Tables 1 and 2, FIGS. 1 and 2) bladders were harvested and immunostained for pFRS2α and pAKT, markers of urothelial protection. Immunostaining of bladder tissues from each group was repeated. Tables 1, 3, and 4 show the staining pattern for pFRS2α and pAKT over time in mice treated with full length FGF7.
(§3) After FGF7 binds to FGFR2IIIb, pFRSα appears first followed by pAKT. Activation of pAKT correlates with the anti-apoptotic/cytoprotective effects of FGF7 in the bladder urothelium.
(§4) Mice treated with DMSO control, full length FGF7, or FGF7-p were analyzed for activation of FGFR2IIIb and pAKT. Phosphorylated FRS2α and AKT levels were examined by immunostaining. After administration of full length FGF7, initial pFRS2α staining was observed as early as 15 hours later and pAKT staining was observed by 30 hours and peaked at 48 hours (see Tables 1-4 above). 48 hours after administration of 20 mg/kg or 40 mg/kg FGF7-p samples, strong FRS2α staining was observed.
To assess whether pATK expression was also increase in FGF7-p treated mice, bladders were analyzed for pATK staining at 72 hours. To confirm pAKT staining was robust in bladder of FGF7-p of treated mice at 72 hours, additional staining for DMSO and FGF7-p (40 mg/kg) treated animals at 72 hours and staining on old samples from full length FGF7-treated samples (5 mg/kg) at 30 hours, 48 hours and 96 hours (n=2 mice per group) was performed. […] Further, robust pAKT signal was seen throughout the urothelium.

In assay [4] the target is T1, FGFR2IIIb. Put plainly: pFRS2α immunostaining of bladder urothelium after subcutaneous ligand. The settings on record: for onset of pFRS2α staining (initial staining observed) after administration: mouse, in vivo. As for the experimental part:
as §2, §3, §4

[5] abbreviates: two SC doses of 20 mg/kg at 72 and 48 hours prior to IP 150 mg/kg cyclophosphamide, 24 hours after cyclophosphamide.

T1 sequence (P21803 22-707 isoform P21803-2 limits assumed): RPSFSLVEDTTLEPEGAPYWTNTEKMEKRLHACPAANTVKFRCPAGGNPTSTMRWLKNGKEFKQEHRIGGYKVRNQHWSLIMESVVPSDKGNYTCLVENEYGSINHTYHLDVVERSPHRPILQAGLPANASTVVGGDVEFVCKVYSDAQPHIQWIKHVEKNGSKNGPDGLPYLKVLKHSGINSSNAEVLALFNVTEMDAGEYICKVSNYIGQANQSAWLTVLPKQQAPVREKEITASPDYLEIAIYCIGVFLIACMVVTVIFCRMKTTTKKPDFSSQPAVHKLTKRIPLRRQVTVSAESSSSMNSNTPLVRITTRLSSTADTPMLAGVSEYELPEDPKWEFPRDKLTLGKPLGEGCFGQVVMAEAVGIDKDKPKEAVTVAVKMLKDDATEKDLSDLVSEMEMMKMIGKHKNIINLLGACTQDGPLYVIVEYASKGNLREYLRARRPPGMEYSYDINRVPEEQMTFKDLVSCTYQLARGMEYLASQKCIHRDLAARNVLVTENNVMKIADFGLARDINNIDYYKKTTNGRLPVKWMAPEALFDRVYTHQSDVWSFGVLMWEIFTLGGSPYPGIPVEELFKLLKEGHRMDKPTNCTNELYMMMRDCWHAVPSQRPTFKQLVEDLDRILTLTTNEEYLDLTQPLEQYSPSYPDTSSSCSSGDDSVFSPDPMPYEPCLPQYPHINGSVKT

Take “YASAKWTHNGGEMFVALNQ (listed as Homo sapiens) [FGF7-p, chemically synthesized 19 amino acid peptide of FGF7, FGFR2IIIb agonist]”: the “radiation-induced urothelial apoptosis, TUNEL staining” value in the assay with bladder urothelium [1] is on record as “many regions with almost no (middle panel) or minimal urothelial apoptosis”. The “protection against urothelial apoptosis” value in the assay on bladder urothelium [2] (single SC dose 5, 20 or 40 mg/kg 24 hours before 150 mg/kg cyclophosphamide, at 48 hours, versus DMSO alone) is given as “no signs of protection against urothelial apoptosis”. In addition, the “urothelial apoptosis, TUNEL staining” value with bladder urothelium [2] (setting [5]) is “intact and non-apoptotic urothelial cells”. For the same molecule, the “urothelial injury, hematoxylin and eosin staining” value in the assay on bladder urothelium [2] (setting [5]) is “almost no urothelial injury”. Besides, in the assay with pBAD, the pBAD urothelial staining result is recorded as “strong staining”. For the same molecule, in the assay with pAKT, the pAKT urothelial staining result is given as “strong signal throughout the urothelium”. Further, in the assay on pS6, the pS6 urothelial staining result was “much stronger staining”. For the same molecule, the figures for the pAKT staining entry in the assay with FGFR2IIIb [3] (24 h after SC dose), in the assay with FGFR2IIIb [3] (48 h after SC dose) and with FGFR2IIIb [3] (72 h after SC dose) were “absent”, “absent” and “robust”, respectively. Further, the pFRS2α staining entry with FGFR2IIIb [4] (24 h after SC dose, uninjured mice, full length FGF7 5 mg/kg, FGF7-p 40 mg/kg) is “weak and patchy; also recorded: Light/patchy (similar to control)”; in the assay with FGFR2IIIb [4] (48 hours after administration of 5 mg/kg) it was “Less, but still significant”; with FGFR2IIIb [4] (48 hours after administration of 20 mg/kg) it was “strong”. Also, in the assay with FGFR2IIIb [4], the “onset of pFRS2α staining (initial staining observed) after administration” value is “delayed”.

B1: full length FGF7: Fibroblast growth factor 7 (keratinocyte growth factor), full length ligand for FGFR2 IIIb isoform, used as comparator (protein)
chain: CNDMTPEQMATNVNCSSPERHTRSYDYMEGGDIRVRRLFCRTQWYLRIDKRGKVKGTQEMKNNYNIMEIRTVAVGIVAIKGVESEFYLAMNKEGKLYAKKECNEDCNFKELILENHYNTYASAKWTHNGGEMFVALNQKGIPVRGKKTKKEQKTAHFLPMAIT
Regarding B1, in the assay with FGFR2IIIb [3] (mouse, in vivo), the “pAKT staining first observed after administration” value was not above 30 hours and the “peak of pAKT staining after administration” value is given as 48 hours. Also, the “onset of pFRS2α staining (initial staining observed) after administration” value with FGFR2IIIb [4] is given as not above 15 hours.
